Measurements reported in US20260266848A1, “COMPOSITIONS AND METHODS FOR DIAGNOSING AND TREATING DYSTONIA” (Duke University, priority 2023, published 2026).

Columns and labels:
WT MEF EVs = assay: Quantitative LC-MS/MS proteomics of EVs from ISRIB-treated WT MEF cultures; type: cell-based, mouse; design: key to ISRIB and DYT Parallel Direction / ISRIB and DYT Parallel Direction, Ctdsp1 / ISRIB and DYT Parallel Direction, Pcdh19 / ISRIB and DYT Parallel Direction, Tspan7 / ISRIB and DYT Parallel Direction, Myo1e / ISRIB and DYT Parallel Direction, Plpp3 / ISRIB and DYT Parallel Direction, Sh3bp4 / ISRIB and DYT Parallel Direction, Dnajc7 / ISRIB and DYT Parallel Direction, Drg1 / ISRIB and DYT Parallel Direction, Maea: YES = protein abundance effect similar to DYT/WT; details: EV protein abundance; for WT + ISRIB/WT Cohen's d: ISRIB-treated WT vs WT; for ISRIB and DYT Parallel Direction: WT + ISRIB vs WT, direction compared with DYT/WT
DYT-TOR1A MEF EVs = assay: Quantitative LC-MS/MS proteomics of EVs from drug-treated DYT-TOR1A MEF cultures (ritonavir, salubrinal); type: cell-based, mouse; design: key to RTV Corrective Direction / RTV Corrective Direction, Grwd1 / RTV Corrective Direction, Srrm2 / RTV Corrective Direction, Rbm17 / RTV Corrective Direction, Dcaf8 / RTV Corrective Direction, Edil3 / RTV Corrective Direction, Timp3 / RTV Corrective Direction, Heatr3 / RTV Corrective Direction, Brd4 / RTV Corrective Direction, P3h4 / RTV Corrective Direction, Pacsin3 / RTV Corrective Direction, Naa50 / RTV Corrective Direction, Lpar6 / RTV Corrective Direction, Ndrg1 / RTV Corrective Direction, Kntc1 / RTV Corrective Direction, Cdk11b / RTV Corrective Direction, Sumo1 / RTV Corrective Direction, Lsm4 / RTV Corrective Direction, Hmga2 / RTV Corrective Direction, Cstf1 / RTV Corrective Direction, Tes / RTV Corrective Direction, Sbno1 / RTV Corrective Direction, Unc119b / RTV Corrective Direction, Cfdp1 / RTV Corrective Direction, Sec61b: YES = protein abundance effect opposite to DYT/WT; details: EV protein abundance; for RTV Corrective Direction: DYT + RTV (ritonavir) vs DYT, direction compared with DYT/WT; for DYT + RTV/DYT Cohen's d: ritonavir (RTV)-treated DYT vs DYT

| Molecule | WT + ISRIB/WT Cohen's d (WT MEF EVs) | ISRIB and DYT Parallel Direction (WT MEF EVs) | RTV Corrective Direction (DYT-TOR1A MEF EVs) | DYT + RTV/DYT Cohen's d (DYT-TOR1A MEF EVs) |
| --- | --- | --- | --- | --- |
| Aco1 (protein, UniProt P28271 1-889, looked up) Cytoplasmic aconitate …: MKNPFAHLAEPLDAAQPGKRFFNLNKLEDSRYGRLPFSIRVLLEAAVRNCDEFLVKKNDIENILNWNVMQHKNIEVPFKPARVILQDFTGVPAVVDFAAMRDAVKKLGGNPEKINPVCPADLVIDHSIQVDFNRRADSLQKNQDLEFERNKERFEFLKWGSQAFCNMRIIPPGSGIIHQVNLEYLARVVFDQDGCYYPDSLVGTDSHTTMIDGLGVLGWGVGGIEAEAVMLGQPISMVLPQVIGYKLMGKPHPLVTSTDIVLTITKHLRQVGVVGKFVEFFGPGVAQLSIADRATIANMCPEYGATAAFFPVDEVSIAYLLQTGREEDKVKHIQKYLQAVGMFRDFNDTSQDPDFTQVVELDLKTVVPCCSGPKRPQDKVAVSEMKKDFESCLGAKQGFKGFQVAPDRHNDRKTFLYSNSEFTLAHGSVVIAAITSCTNTSNPSVMLGAGLLAKKAVEAGLSVKPYIKTSLSPGSGVVTYYLRESGVMPYLSQLGFDVVGYGCMTCIGNSGPLPEPVVEAITQGDLVAVGVLSGNRNFEGRVHPNTRANYLASPPLVIAYAIAGTVRIDFEKEPLGVNAQGRQVFLKDIWPTRDEIQAVERQHVIPGMFKEVYQKIETVNKSWNALAAPSEKLYAWNPKSTYIKSPPFFESLTLDLQPPKSIVDAYVLLNLGDSVTTDHISPAGNIARNSPAARYLTNRGLTPREFNSYGSRRGNDAIMARGTFANIRLLNKFLNKQAPQTVHLPSGETLDVFDAAERYQQAGLPLIVLAGKEYGSGSSRDWAAKGPFLLGIKAVLAESYERIHRSNLVGMGVIPLEYLPGETADSLGLTGRERYTINIPEDLKPRMTVQIKLDTGKTFQAVMRFDTDVELTYFHNGGILNYMIRKMAQ | −1.03 | YES | YES | 3.33 |
| Pdia6 (protein, UniProt Q922R8 20-440, looked up) Protein disulfide-isomerase A6: LYSSSDDVIELTPSNFNREVIQSDGLWLVEFYAPWCGHCQRLTPEWKKAATALKDVVKVGAVNADKHQSLGGQYGVQGFPTIKIFGANKNKPEDYQGGRTGEAIVDAALSALRQLVKDRLGGRSGGYSSGKQGRGDSSSKKDVVELTDDTFDKNVLDSEDVWMVEFYAPWCGHCKNLEPEWAAAATEVKEQTKGKVKLAAVDATVNQVLASRYGIKGFPTIKIFQKGESPVDYDGGRTRSDIVSRALDLFSDNAPPPELLEIINEDIAKKTCEEHQLCVVAVLPHILDTGAAGRNSYLEVLLKLADKYKKKMWGWLWTEAGAQYELENALGIGGFGYPAMAAINARKMKFALLKGSFSEQGINEFLRELSFGRGSTAPVGGGSFPTITPREPWDGKDGELPVEDDIDLSDVELDDLEKDEL | −1.84 | YES | YES | 3.27 |
| Ddr2 (protein, UniProt Q62371 22-854, looked up) Discoidin domain-containing …: KAQVNPAICRYPLGMSGGHIPDEDITASSQWSESTAAKYGRLDSEEGDGAWCPEIPVQPDDLKEFLQIDLRTLHFITLVGTQGRHAGGHGIEFAPMYKINYSRDGSRWISWRNRHGKQVLDGNSNPYDVFLKDLEPPIVARFVRLIPVTDHSMNVCMRVELYGCVWLDGLVSYNAPAGQQFVLPGGSIIYLNDSVYDGAVGYSMTEGLGQLTDGVSGLDDFTQTHEYHVWPGYDYVGWRNESATNGFIEIMFEFDRIRNFTTMKVHCNNMFAKGVKIFKEVQCYFRSEASEWEPTAVYFPLVLDDVNPSARFVTVPLHHRMASAIKCQYHFADTWMMFSEITFQSDAAMYNNSGALPTSPMAPTTYDPMLKVDDSNTRILIGCLVAIIFILLAIIVIILWRQFWQKMLEKASRRMLDDEMTVSLSLPSESSMFNNNRSSSPSEQESNSTYDRIFPLRPDYQEPSRLIRKLPEFAPGEEESGCSGVVKPAQPNGPEGVPHYAEADIVNLQGVTGGNTYCVPAVTMDLLSGKDVAVEEFPRKLLAFKEKLGEGQFGEVHLCEVEGMEKFKDKDFALDVSANQPVLVAVKMLRADANKNARNDFLKEIKIMSRLKDPNIIRLLAVCITEDPLCMITEYMENGDLNQFLSRHEPLSSCSSDATVSYANLKFMATQIASGMKYLSSLNFVHRDLATRNCLVGKNYTIKIADFGMSRNLYSGDYYRIQGRAVLPIRWMSWESILLGKFTTASDVWAFGVTLWETFTFCQEQPYSQLSDEQVIENTGEFFRDQGRQIYLPQPALCPDSVYKLMLSCWRRETKHRPSFQEIHLLLLQQGAE | −7.89 | YES | YES | 0.93 |
| Mcm2 (protein, UniProt P97310 2-904, looked up) DNA replication licensing …: AESSESLSASSPARQRRRISDPLTSSPGRSSRRADALTSSPGRDLPPFEDESEGLLGTEGPMEEEEDGEELIGDGMERDYRPIPELDVYEAEGLALDDEDVEELTASQREAAERTMRQRDREAGRGLGRMRRGLLYDSSEEDEERPARKRRHVERATEDGEEDEEMIESIENLEDLKGHSVREWVSMAGPRLEIHHRFKNFLRTHVDSHGHNVFKERISDMCKENRESLVVNYEDLAAREHVLAYFLPEAPAELLQIFDEAALEVVLAMYPKYDRITNHIHVRISHLPLVEELRSLRQLHLNQLIRTSGVVTSCTGVLPQLSMVKYNCSKCNFVLGPFCQSQNQEVKPGSCPECQSAGPFEINMEETIYQNYQRIRIQESPGKVAAGRLPRSKDAILLADLVDSCKPGDEIELTGIYHNNYDGSLNTANGFPVFATIILANHVAKKDNKVAVGELTDEDVKMITGLSKDQQIGEKIFASIAPSIYGHEDIKRGLALALFGGEPKNPGGKHKVRGDINVLLCGDPGTAKSQFLKYIEKVSSRAIFTTGQGASAVGLTAYVQRHPVSREWTLEAGALVLADRGVCLIDEFDKMNDQDRTSIHEAMEQQSISISKAGIVTSLQARCTVIAAANPIGGRYDPSLTFSENVDLTEPIISRFDVLCVVRDTVDPVQDEMLARFVVGSHVRHHPSNKKDEGLTNGGTLEPAMPNTYGVEPLPQEVLKKYIIYAKERVRPKLNQMDQDKVARMYSDLRKESMATGSIPITVRHIESMIRMAEAHARMHLRDYVMEDDVNMAIRVMMESFIDTQKFSVMRSMRKTFARYLSFRRDNNDLLLFILKQLVAEQVTYQRNRFGAQQDTIEIPEKDLMDKARQINIHNLSAFYDSDLFKFNKFSRDLKRKLILQQF | −2.10 | YES | YES | 3.96 |
| Lmna (protein, UniProt P48678 1-662, looked up) Prelamin-A/C: METPSQRRATRSGAQASSTPLSPTRITRLQEKEDLQELNDRLAVYIDRVRSLETENAGLRLRITESEEVVSREVSGIKAAYEAELGDARKTLDSVAKERARLQLELSKVREEFKELKARNTKKEGDLLAAQARLKDLEALLNSKEAALSTALSEKRTLEGELHDLRGQVAKLEAALGEAKKQLQDEMLRRVDAENRLQTLKEELDFQKNIYSEELRETKRRHETRLVEIDNGKQREFESRLADALQELRAQHEDQVEQYKKELEKTYSAKLDNARQSAERNSNLVGAAHEELQQSRIRIDSLSAQLSQLQKQLAAKEAKLRDLEDSLARERDTSRRLLAEKEREMAEMRARMQQQLDEYQELLDIKLALDMEIHAYRKLLEGEEERLRLSPSPTSQRSRGRASSHSSQSQGGGSVTKKRKLESSESRSSFSQHARTSGRVAVEEVDEEGKFVRLRNKSNEDQSMGNWQIRRQNGDDPLMTYRFPPKFTLKAGQVVTIWASGAGATHSPPTDLVWKAQNTWGCGSSLRTALINSTGEEVAMRKLVRSLTMVEDNEDDDEDGEELLHHHRGSHCSGSGDPAEYNLRSRTVLCGTCGQPADKAAGGAGAQVGGSISSGSSASSVTVTRSFRSVGGSGGGSFGDNLVTRSYLLGNSSPRSQSSQNC | −0.19 | YES | YES | 3.97 |
| Srp68 (protein, UniProt Q8BMA6 1-625, looked up) Signal recognition particle …: MAAEKQIPGGGSGGGGSGSGGGGGGSGGGRSAGGDENKENERPSAGSKANKEFGDSLSLEILQIIKESQQQHGLRHGDFQRYRGYCSRRQRRLRKTLNFKMGNRHKFTGKKVTEELLTDNRYLLLVLMDAERAWSYAMQLKQEANTEPRKRFHLLSRLRKAVKHAEELERLCESNRVDAKTKLEAQAYTAYLSGMLRFEHQEWKSAIEAFNKCKTIYEKLASAFTEEQAVLYNQRVEEISPNIRYCAYNIGDQSAINELMQMRLRSGGTEGLLAEKLEALITQTRAKQAATMSEVEWRGRTVPVKIDKVRIFLLGLADNEAAIVQAESEETKERLFESMLSECRDALQAVREELKPDQKQRDYALDGESGKVSNLQYLHSYLTYIKLSTAIRRNENMAKGLHRALLQQQPEDDSKRSPRPQDLIRLYDIILQNLVELLQLPGLEEDRTFQKEISLKTLVFKAYRCFFIAQSYVLVKKWSEALVLYDRVLKYANEVSSHGGASKNSLKDLPDVQELITQVRSEKCSLQAAAILDANDSHQTDTSSQVKDNTPLVERFESFCLDPSLVTKQANLVHFPPGFQPIPCKPLFFDLALNHVAFPPLEDKLEQKTKSGLTGYIKGIFGFRS | −1.21 | YES | YES | 2.70 |
